# Starred links: 1 amine or outer side, 2 acyl side, 3 side chain; linkers in the order of their positions; H or OH if unused. Non-standard residues stand in square brackets, D forms with d. Groups on a side chain read outwards from the residue. No end group written: not given here. *: point of attachment. C20 diacid = O=C(O)CCCCCCCCCCCCCCCCCCC(=O)*; γGlu = O=C(O)[C@H](CCC(=O)[*:2])N[*:1]; αMeK = C[C@](N)(CCCCN)C(=O)O; αMeS = C[C@](N)(CO)C(=O)O; AEEA = NCCOCCOCC(=O)O; Aib = CC(C)(N)C(=O)O
# T1: human glucose-dependent insulinotropic polypeptide receptor (human, UniProt P48546 22-466)
# T1 sequence (looked up): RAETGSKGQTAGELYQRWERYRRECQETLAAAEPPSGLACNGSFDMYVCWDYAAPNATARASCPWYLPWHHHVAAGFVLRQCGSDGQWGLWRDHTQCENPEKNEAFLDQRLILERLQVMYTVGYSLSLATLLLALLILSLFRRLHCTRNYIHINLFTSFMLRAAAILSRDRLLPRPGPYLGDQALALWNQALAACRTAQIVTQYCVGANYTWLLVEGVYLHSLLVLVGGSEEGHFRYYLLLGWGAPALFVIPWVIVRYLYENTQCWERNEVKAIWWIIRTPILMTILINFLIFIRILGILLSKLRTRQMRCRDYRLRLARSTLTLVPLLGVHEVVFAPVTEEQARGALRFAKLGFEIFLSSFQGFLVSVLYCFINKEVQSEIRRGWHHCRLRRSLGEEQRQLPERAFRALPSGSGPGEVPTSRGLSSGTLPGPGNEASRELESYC
# B1: Compound No. 0126 (peptide)
# peptide: H[Aib]HGTFTSDYS[αMeK]LLEK([AEEA-AEEA-γGlu-C20 diacid])KAA[αMeS]EFVEWLIEGGPSSGAPPPS-NH2
# modifications: N-terminus assumed
# SMILES: CC[C@H](C)[C@H](NC(=O)[C@H](CC(C)C)NC(=O)[C@H](Cc1c[nH]c2ccccc12)NC(=O)[C@H](CCC(=O)O)NC(=O)[C@@H](NC(=O)[C@H](Cc1ccccc1)NC(=O)[C@H](CCC(=O)O)NC(=O)[C@](C)(CO)NC(=O)[C@H](C)NC(=O)[C@H](C)NC(=O)[C@H](CCCCN)NC(=O)[C@H](CCCCNC(=O)COCCOCCNC(=O)COCCOCCNC(=O)CC[C@H](NC(=O)CCCCCCCCCCCCCCCCCCC(=O)O)C(=O)O)NC(=O)[C@H](CCC(=O)O)NC(=O)[C@H](CC(C)C)NC(=O)[C@H](CC(C)C)NC(=O)[C@](C)(CCCCN)NC(=O)[C@H](CO)NC(=O)[C@H](Cc1ccc(O)cc1)NC(=O)[C@H](CC(=O)O)NC(=O)[C@H](CO)NC(=O)[C@@H](NC(=O)[C@H](Cc1ccccc1)NC(=O)[C@@H](NC(=O)CNC(=O)[C@H](Cc1c[nH]cn1)NC(=O)C(C)(C)NC(=O)[C@@H](N)Cc1c[nH]cn1)[C@@H](C)O)[C@@H](C)O)C(C)C)C(=O)N[C@@H](CCC(=O)O)C(=O)NCC(=O)NCC(=O)N1CCC[C@H]1C(=O)N[C@@H](CO)C(=O)N[C@@H](CO)C(=O)NCC(=O)N[C@@H](C)C(=O)N1CCC[C@H]1C(=O)N1CCC[C@H]1C(=O)N1CCC[C@H]1C(=O)N[C@@H](CO)C(N)=O
# Experiments:
# Experiment in all cases: cell-based or functional assay
# human glucagon receptor = human glucagon receptor (human, UniProt P47871 26-477)
# [1] = target: human glucagon-like peptide-1 receptor (human, UniProt P43220 24-463)
# [2] = target: T1, human glucose-dependent insulinotropic …
# human glucagon receptor, sequence (P47871 26-477): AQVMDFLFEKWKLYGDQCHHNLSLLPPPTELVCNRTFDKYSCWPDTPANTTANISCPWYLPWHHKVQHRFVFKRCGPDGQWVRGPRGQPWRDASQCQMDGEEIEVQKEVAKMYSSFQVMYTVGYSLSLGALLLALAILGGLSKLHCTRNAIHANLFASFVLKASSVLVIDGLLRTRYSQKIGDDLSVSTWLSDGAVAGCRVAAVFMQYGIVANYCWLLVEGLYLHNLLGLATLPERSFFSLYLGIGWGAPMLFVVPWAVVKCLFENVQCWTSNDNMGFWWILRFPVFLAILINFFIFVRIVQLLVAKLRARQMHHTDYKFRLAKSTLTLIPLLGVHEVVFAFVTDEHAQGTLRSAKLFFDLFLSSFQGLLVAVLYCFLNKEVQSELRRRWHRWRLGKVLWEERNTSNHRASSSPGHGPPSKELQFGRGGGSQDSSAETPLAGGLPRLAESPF
binder,measurement,setting,value
B1,Activity against human GCGR (EC50 nM),human glucagon receptor,0.008 nM
same,Activity against human GLP-1R (EC50 nM),[1],0.008 nM
same,Activity against human GIPR (EC50 nM),[2],0.002 nM
